Source: patent publication EP4671273A1 (Anaveon AG, dated 2025)

Key:
[1] = molecular target: T1, human PD-1 (#PD1-H82E4, AcroBiosystems) (human, UniProt Q15116 25-167); test: SPR, PD-1 on captured IgG1
T1 construct: bought

[2] = molecular target: T2, cynomolgus PD-1 (#PD1-C52H5, AcroBiosystems) (cynomolgus monkey, UniProt B0LAJ3 25-170); test: SPR, PD-1 on captured IgG1
T2 construct: bought; also called cynomolgus monkey PD-1; not shown: the vendor's tag on the recombinant protein (AcroBiosystems #PD1-C52H5)

[3] = molecular target: recombinant human IL-21 (rhIL-21) (human, UniProt Q9HBE4 30-162, limits assumed); test: cell-based or functional assay
recombinant human IL-21 (rhIL-21), sequence (Q9HBE4 30-162 limits assumed): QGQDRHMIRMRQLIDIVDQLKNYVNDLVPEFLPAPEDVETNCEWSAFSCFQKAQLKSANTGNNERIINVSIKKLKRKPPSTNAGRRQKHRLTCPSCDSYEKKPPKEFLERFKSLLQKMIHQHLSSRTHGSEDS

T2 sequence (B0LAJ3 entry or part of it limits assumed, form in doubt): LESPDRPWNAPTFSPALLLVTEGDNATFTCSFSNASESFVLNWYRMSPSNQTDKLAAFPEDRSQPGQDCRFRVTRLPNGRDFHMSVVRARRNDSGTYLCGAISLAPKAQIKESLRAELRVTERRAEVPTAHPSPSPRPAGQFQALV
T1 sequence (Q15116 25-167 limits assumed): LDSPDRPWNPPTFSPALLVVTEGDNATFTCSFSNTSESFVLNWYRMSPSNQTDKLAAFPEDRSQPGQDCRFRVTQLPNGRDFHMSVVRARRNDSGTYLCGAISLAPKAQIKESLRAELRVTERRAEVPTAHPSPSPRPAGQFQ

Binder | Kd [1] [nM] | koff [1] [s⁻¹] | kon [1] [M⁻¹ s⁻¹] | Kd [2] [nM] | koff [2] [s⁻¹] | kon [2] [M⁻¹ s⁻¹] | % pSTAT3+ Jurkat cells, 0.1 nM rhIL-21 + 0 nM antibody [3] [%] | % pSTAT3+ Jurkat cells, 0.1 nM rhIL-21 + 0.1012 nM antibody [3] [%] | % pSTAT3+ Jurkat cells, 0.1 nM rhIL-21 + 0.1602 nM antibody [3] [%] | % pSTAT3+ Jurkat cells, 0.1 nM rhIL-21 + 0.2536 nM antibody [3] [%] | % pSTAT3+ Jurkat cells, 0.1 nM rhIL-21 + 0.4015 nM antibody [3] [%] | % pSTAT3+ Jurkat cells, 0.1 nM rhIL-21 + 0.6355 nM antibody [3] [%] | % pSTAT3+ Jurkat cells, 0.1 nM rhIL-21 + 1.006 nM antibody [3] [%] | % pSTAT3+ Jurkat cells, 0.1 nM rhIL-21 + 1.5925 nM antibody [3] [%] | % pSTAT3+ Jurkat cells, 0.1 nM rhIL-21 + 2.5209 nM antibody [3] [%] | % pSTAT3+ Jurkat cells, 0.1 nM rhIL-21 + 3.9906 nM antibody [3] [%] | % pSTAT3+ Jurkat cells, 0.1 nM rhIL-21 + 6.3171 nM antibody [3] [%] | % pSTAT3+ Jurkat cells, 0.1 nM rhIL-21 + 10 nM antibody [3] [%]
XVT458-z2-m6 (antibody, human IgG1, V domains shown, human IgG1; also called anti-PD-1 antibody clone XVT458-z2-m6) VH: VQLVQSGAEVKKPGASVKVSCKASGYTFTNFYIHWVRQAPGQGLEWMGSIYPNYGITAYNQKFKDRVTMTVDTSTSTAYMELRSLRSDDTAVYYCARGYSYAMDYWGQGTTVTVSS VL: DIQMTQSPSSVSASVGDRVTITCSASQGISGDLNWYQQKPGKAPKLLIYHTSQLHSDVPSRFSGSGSGTDFTLTISSLQPEDFATYYCQGYSKDLLTFGGGTKLEIK | 0.522 | 0.000174 | 333000 | 0.306 | 0.000153 | 499000 | – | – | – | – | – | – | – | – | – | – | – | –
DKR699 (antibody, human IgG1, V domains shown, human IgG1) VH: VQLVQSGAEVKKPGASVKVSCKASGYTFTNFYIHWVRQAPGQGLEWMGSIYPNYGDTAYNQKFKDRVTMTVDTSTSTAYMELRSLRSDDTAVYYCARGYSYAMDYWGQGTTVTVSS VL: DIQMTQSPSSVSASVGDRVTITCSASQGISGDLNWYQQKPGKAPKLLIYHTSQLHSDVPSRFSGSGSGTDFTLTISSLQPEDFATYYCQGYSKDLLTFGGGTKLEIK | 0.606 | 0.000121 | 200000 | 0.86 | 0.000203 | 236000 | – | – | – | – | – | – | – | – | – | – | – | –
NRT742 (antibody, human IgG1, V domains shown, human IgG1) VH: VQLVQSGAEVKKPGASVKVSCKASGYTFTNFYIHWVRQAPGQGLEWMGSIYPNYGITAYNQKFKDRVTMTVDTSTSTAYMELRSLRSDDTAVYYCARGYSYAMDYWGQGTTVTVSS VL: DIQMTQSPSSVSASVGDRVTITCSASQGISGDLNWYQQKPGKAPKLLIYHASQLHSDVPSRFSGSGSGTDFTLTISSLQPEDFATYYCQGYSKDLLTFGGGTKLEIK | 0.955 | 0.000406 | 426000 | 0.541 | 0.000297 | 549000 | – | – | – | – | – | – | – | – | – | – | – | –
OKM590 (antibody, human IgG1, V domains shown, human IgG1) VH: VQLVQSGAEVKKPGASVKVSCKASGYTFTNFYIHWVRQAPGQGLEWMGSIYPNYGITAYNQKFKDRVTMTVDTSTSTAYMELRSLRSDDTAVYYCARGYSYAMDVWGQGTTVTVSS VL: DIQMTQSPSSVSASVGDRVTITCSASQGISGDLNWYQQKPGKAPKLLIYHTSQLHSDVPSRFSGSGSGTDFTLTISSLQPEDFATYYCQGYSKDLLTFGGGTKLEIK | 0.955 | 0.00039 | 409000 | 0.627 | 0.000345 | 551000 | – | – | – | – | – | – | – | – | – | – | – | –
BBJ602 (antibody, human IgG1, V domains shown, human IgG1) VH: VQLVQSGAEVKKPGASVKVSCKASGYTFTNFYIHWVRQAPGQGLEWMGSIYPNYGITAYNQKFKDRVTMTVDTSTSTAYMELRSLRSDDTAVYYCARGYSYGMDYWGQGTTVTVSS VL: DIQMTQSPSSVSASVGDRVTITCSASQGISGDLNWYQQKPGKAPKLLIYHTSQLHSDVPSRFSGSGSGTDFTLTISSLQPEDFATYYCQGYSKDLLTFGGGTKLEIK | 18.1 | 0.0278 | 1.54e+06 | 8.53 | 3.15 | 3.69e+08 | – | – | – | – | – | – | – | – | – | – | – | –
LKK631 (antibody, human IgG1, V domains shown) VH: EVQLQQFGAEVVKPGASVKMSCKASGYTFTDYNMNWVKQSHEKSLEWIGDIHPKFHSTNYNQKFKGKATLTIDTSSSTAYMELRNLTSEDTAVYYCARVGNYVYFVMDYWGQGTSVTVSS VL: SIVMTQTPKFLLVSAGDRVTITCKASQSVSNDVAWYQQKPGQSPKLLIYYASNRYTGVPDRFSGSGYGTDFTFTISTVQAEDLAVYFCQQDYTSPWTFGGGTKLEIK | – | – | – | – | – | – | 82.1 | 81 | 72.4 | 71.4 | 71.5 | 65.6 | 69.5 | 58.7 | 55.1 | 42 | 44.5 | 41.1

The remaining binders from weak to strong by Kd [1], led by results:

Kd [1] [nM] | koff [1] [s⁻¹] | kon [1] [M⁻¹ s⁻¹] | Kd [2] [nM] | koff [2] [s⁻¹] | kon [2] [M⁻¹ s⁻¹] | % pSTAT3+ Jurkat cells, 0.1 nM rhIL-21 + 0 nM antibody [3] [%] | % pSTAT3+ Jurkat cells, 0.1 nM rhIL-21 + 0.1012 nM antibody [3] [%] | % pSTAT3+ Jurkat cells, 0.1 nM rhIL-21 + 0.1602 nM antibody [3] [%] | % pSTAT3+ Jurkat cells, 0.1 nM rhIL-21 + 0.2536 nM antibody [3] [%] | % pSTAT3+ Jurkat cells, 0.1 nM rhIL-21 + 0.4015 nM antibody [3] [%] | % pSTAT3+ Jurkat cells, 0.1 nM rhIL-21 + 0.6355 nM antibody [3] [%] | % pSTAT3+ Jurkat cells, 0.1 nM rhIL-21 + 1.006 nM antibody [3] [%] | % pSTAT3+ Jurkat cells, 0.1 nM rhIL-21 + 1.5925 nM antibody [3] [%] | % pSTAT3+ Jurkat cells, 0.1 nM rhIL-21 + 2.5209 nM antibody [3] [%] | % pSTAT3+ Jurkat cells, 0.1 nM rhIL-21 + 3.9906 nM antibody [3] [%] | % pSTAT3+ Jurkat cells, 0.1 nM rhIL-21 + 6.3171 nM antibody [3] [%] | % pSTAT3+ Jurkat cells, 0.1 nM rhIL-21 + 10 nM antibody [3] [%] | Binder
0.521 | 0.000189 | 363000 | 0.327 | 0.00016 | 489000 | – | – | – | – | – | – | – | – | – | – | – | – | PEV057 (antibody, human IgG1, V domains shown, human IgG1) VH: VQLVQSGAEVKKPGASVKVSCKASGYTFTNFYIHWVRQAPGQGLEWMGSIYPNYGITAYNQKFKDRVTMTVDTSTSTAYMELRSLRSDDTATYYCARGYSYAMDYWGQGTTVTVSS VL: DIQMTQSPSSVSASVGDRVTITCSASQGISGDLNWYQQKPGKAPKLLIYHTSQLHSDVPSRFSGSGSGTDFTLTISSLQPEDFATYYCQGYSKDLLTFGGGTKLEIK
0.511 | 0.000187 | 365000 | 0.296 | 0.000176 | 592000 | – | – | – | – | – | – | – | – | – | – | – | – | ICW519 (antibody, human IgG1, V domains shown, human IgG1) VH: VQLVQSGAEVKKPGASVKVSCKASGYTFTNFYIHWVRQAPGQGLEWMGSIYPNYGITAYNQKFQDRVTMTVDTSTSTAYMELRSLRSDDTAVYYCARGYSYAMDYWGQGTTVTVSS VL: DIQMTQSPSSVSASVGDRVTITCSASQGISGDLNWYQQKPGKAPKLLIYHTSQLHSDVPSRFSGSGSGTDFTLTISSLQPEDFATYYCQGYSKDLLTFGGGTKLEIK
0.506 | 0.000166 | 329000 | 0.362 | 0.000179 | 495000 | – | – | – | – | – | – | – | – | – | – | – | – | KOB135 (antibody, human IgG1, V domains shown, human IgG1) VH: VQLVQSGAEVKKPGASVKVSCKASGYTFTNFYIHWVRQAPGQGLEWMGSIYPNYGITAYNQKFKDRVTMTVDTSTSTAYMELRSLRSDDTAVYYCARGYSYAMDYWGQGTTVTVSS VL: DIQMTQSPSSVSASVGDRVTITCSASQGISGDLNWYQQKPGKAPKLLIYHTSQQHSDVPSRFSGSGSGTDFTLTISSLQPEDFATYYCQGYSKDLLTFGGGTKLEIK
0.48 | 0.000208 | 434000 | 0.328 | 0.000182 | 555000 | – | – | – | – | – | – | – | – | – | – | – | – | QGA408 (antibody, human IgG1, V domains shown, human IgG1) VH: VQLVQSGAEVKKPGASVKVSCKASGYTFTNFYIHWVRQAPGQGLEWMGSIYPNYGITAFNQKFKDRVTMTVDTSTSTAYMELRSLRSDDTAVYYCARGYSYAMDYWGQGTTVTVSS VL: DIQMTQSPSSVSASVGDRVTITCSASQGISGDLNWYQQKPGKAPKLLIYHTSQLHSDVPSRFSGSGSGTDFTLTISSLQPEDFATYYCQGYSKDLLTFGGGTKLEIK
0.429 | 0.000144 | 336000 | 0.246 | 0.000124 | 504000 | – | – | – | – | – | – | – | – | – | – | – | – | JPK663 (antibody, human IgG1, V domains shown, human IgG1) VH: VQLVQSGAEVKKPGASVKVSCKASGYTFTNFYIHWVRQAPGQGLEWMGSIYPNYGITAYNQKFKDRVTMTVDTSTSTAYMELRSLRSDDTAVYYCARGYSYAMDYWGQGTTVTVSS VL: DIQMTQSPSSVSASVGDRVTATCSASQGISGDLNWYQQKPGKAPKLLIYHTSQLHSDVPSRFSGSGSGTDFTLTISSLQPEDFATYYCQGYSKDLLTFGGGTKLEIK
0.342 | 0.000117 | 344000 | 0.205 | 0.000101 | 493000 | – | – | – | – | – | – | – | – | – | – | – | – | ACH836 (antibody, human IgG1, V domains shown, human IgG1) VH: VQLVQSGAEVKKPGASVKVSCKASGYTFTNFYIHWVRQAPGQGLEWMGSIYPNYGITAYNQKFKDRVTMTVDTSTSTAYMELRSLRSDDTAVYYCARGYSYAMDYWGQGTTVTVSS VL: DIQMTQSPSSVSASVGDRVTITCSASQGASGDLNWYQQKPGKAPKLLIYHTSQLHSDVPSRFSGSGSGTDFTLTISSLQPEDFATYYCQGYSKDLLTFGGGTKLEIK
